Data reported in article PMC10307626, “Structural basis of NINJ1-mediated plasma membrane rupture in cell death” (Nature, 2023).

B1: hNINJ1 Q91A (natural protein, human, UniProt Q92982 1-152, looked up)
chain: MDSGTEEYELNGGLPPGTPGSPDASPARWGWRHGPINVNHYASKKSAAESMLDIALLMANASQLKAVVEQGPSFAFYVPLVVLISISLVLAIGVGVLLIFLVKYDLNNPAKHAKLDFLNNLATGLVFIIVVVNIFITAFGVQKPLMDMAPQQ
notes: ninjurin-1 (NINJ1), human, UniProt Q92982, residues 1–152, point mutant; source: E. coli Rosetta2 (DE3), purified (DDM, Ni-NTA, TEV cleavage); not shown: 8×His, N-terminal, cleaved
B2: hNINJ1 D53A (natural protein, human, UniProt Q92982 1-152, looked up)
chain: MDSGTEEYELNGGLPPGTPGSPDASPARWGWRHGPINVNHYASKKSAAESMLAIALLMANASQLKAVVEQGPSFAFYVPLVVLISISLVLQIGVGVLLIFLVKYDLNNPAKHAKLDFLNNLATGLVFIIVVVNIFITAFGVQKPLMDMAPQQ
notes: as for B1
B3: hNINJ1 T123L (natural protein, human, UniProt Q92982 1-152, looked up)
chain: MDSGTEEYELNGGLPPGTPGSPDASPARWGWRHGPINVNHYASKKSAAESMLDIALLMANASQLKAVVEQGPSFAFYVPLVVLISISLVLQIGVGVLLIFLVKYDLNNPAKHAKLDFLNNLALGLVFIIVVVNIFITAFGVQKPLMDMAPQQ
notes: as for B1
B4: hNINJ1 A47L (natural protein, human, UniProt Q92982 1-152, looked up)
chain: MDSGTEEYELNGGLPPGTPGSPDASPARWGWRHGPINVNHYASKKSLAESMLDIALLMANASQLKAVVEQGPSFAFYVPLVVLISISLVLQIGVGVLLIFLVKYDLNNPAKHAKLDFLNNLATGLVFIIVVVNIFITAFGVQKPLMDMAPQQ
notes: as for B1
B5: hNINJ1 L121W (natural protein, human, UniProt Q92982 1-152, looked up)
chain: MDSGTEEYELNGGLPPGTPGSPDASPARWGWRHGPINVNHYASKKSAAESMLDIALLMANASQLKAVVEQGPSFAFYVPLVVLISISLVLQIGVGVLLIFLVKYDLNNPAKHAKLDFLNNWATGLVFIIVVVNIFITAFGVQKPLMDMAPQQ
notes: as for B1
B6: hNINJ1 L121F (natural protein, human, UniProt Q92982 1-152, looked up)
chain: MDSGTEEYELNGGLPPGTPGSPDASPARWGWRHGPINVNHYASKKSAAESMLDIALLMANASQLKAVVEQGPSFAFYVPLVVLISISLVLQIGVGVLLIFLVKYDLNNPAKHAKLDFLNNFATGLVFIIVVVNIFITAFGVQKPLMDMAPQQ
notes: as for B1
B7: hNINJ1 V82F (natural protein, human, UniProt Q92982 1-152, looked up)
chain: MDSGTEEYELNGGLPPGTPGSPDASPARWGWRHGPINVNHYASKKSAAESMLDIALLMANASQLKAVVEQGPSFAFYVPLVFLISISLVLQIGVGVLLIFLVKYDLNNPAKHAKLDFLNNLATGLVFIIVVVNIFITAFGVQKPLMDMAPQQ
notes: as for B1
B8: hNINJ1 I134F (natural protein, human, UniProt Q92982 1-152, looked up)
chain: MDSGTEEYELNGGLPPGTPGSPDASPARWGWRHGPINVNHYASKKSAAESMLDIALLMANASQLKAVVEQGPSFAFYVPLVVLISISLVLQIGVGVLLIFLVKYDLNNPAKHAKLDFLNNLATGLVFIIVVVNFFITAFGVQKPLMDMAPQQ
notes: as for B1
B9: hNINJ1 V82W (natural protein, human, UniProt Q92982 1-152, looked up)
chain: MDSGTEEYELNGGLPPGTPGSPDASPARWGWRHGPINVNHYASKKSAAESMLDIALLMANASQLKAVVEQGPSFAFYVPLVWLISISLVLQIGVGVLLIFLVKYDLNNPAKHAKLDFLNNLATGLVFIIVVVNIFITAFGVQKPLMDMAPQQ
notes: as for B1
B10: hNINJ1 A138L (natural protein, human, UniProt Q92982 1-152, looked up)
chain: MDSGTEEYELNGGLPPGTPGSPDASPARWGWRHGPINVNHYASKKSAAESMLDIALLMANASQLKAVVEQGPSFAFYVPLVVLISISLVLQIGVGVLLIFLVKYDLNNPAKHAKLDFLNNLATGLVFIIVVVNIFITLFGVQKPLMDMAPQQ
notes: as for B1
B11: hNINJ1 G95L (natural protein, human, UniProt Q92982 1-152, looked up)
chain: MDSGTEEYELNGGLPPGTPGSPDASPARWGWRHGPINVNHYASKKSAAESMLDIALLMANASQLKAVVEQGPSFAFYVPLVVLISISLVLQIGVLVLLIFLVKYDLNNPAKHAKLDFLNNLATGLVFIIVVVNIFITAFGVQKPLMDMAPQQ
notes: as for B1
B12: full-length, wild-type human NINJ1 (ninjurin-1), residues 1–152 (natural protein, UniProt Q92982 1-152, looked up)
chain: MDSGTEEYELNGGLPPGTPGSPDASPARWGWRHGPINVNHYASKKSAAESMLDIALLMANASQLKAVVEQGPSFAFYVPLVVLISISLVLQIGVGVLLIFLVKYDLNNPAKHAKLDFLNNLATGLVFIIVVVNIFITAFGVQKPLMDMAPQQ
notes: ninjurin-1 (NINJ1), human, UniProt Q92982, residues 1–152; residues 39–141 are modelled in the filament structure; residues of the site probably remain at the N-terminus after cleavage; Forms filaments of no fixed number of subunits; also called hNINJ1; hNINJ1(1–152); source: E. coli Rosetta2 (DE3), extracted from membranes with DDM, purified (Ni-NTA, TEV cleavage, SEC on Superose 6); not shown: …
B13: hNINJ1 I84F (natural protein, human, UniProt Q92982 1-152, looked up)
chain: MDSGTEEYELNGGLPPGTPGSPDASPARWGWRHGPINVNHYASKKSAAESMLDIALLMANASQLKAVVEQGPSFAFYVPLVVLFSISLVLQIGVGVLLIFLVKYDLNNPAKHAKLDFLNNLATGLVFIIVVVNIFITAFGVQKPLMDMAPQQ
notes: as for B1
B14: hNINJ1 K45Q (natural protein, human, UniProt Q92982 1-152, looked up)
chain: MDSGTEEYELNGGLPPGTPGSPDASPARWGWRHGPINVNHYASKQSAAESMLDIALLMANASQLKAVVEQGPSFAFYVPLVVLISISLVLQIGVGVLLIFLVKYDLNNPAKHAKLDFLNNLATGLVFIIVVVNIFITAFGVQKPLMDMAPQQ
notes: as for B1
B15: hNINJ1∆1–36 (domain or fragment, human, UniProt Q92982 37-152, looked up)
chain: NVNHYASKKSAAESMLDIALLMANASQLKAVVEQGPSFAFYVPLVVLISISLVLQIGVGVLLIFLVKYDLNNPAKHAKLDFLNNLATGLVFIIVVVNIFITAFGVQKPLMDMAPQQ
notes: ninjurin-1 (NINJ1), human, UniProt Q92982, printed as hNINJ1∆1–36 (residues 1–36 removed); probably as the wild type (8×His and TEV site, cleaved); also called truncated hNINJ1; source: E. coli Rosetta2 (DE3), purified

Target: the molecule itself
Test: negative-stain TEM; 0.02 mg/ml purified protein on glow-discharged carbon-coated copper grids, 2% uranyl acetate; single-point mutants taken directly after TEV cleavage of the 8×His tag

Binding result, binds:
B1
B2
B3
B4
B5
B6
B7
B8
B9
B10
B11
B12
B13
B14
B15
